In the RNAGym collection of RNA variant scans (doi:10.1093/molbev/msab373):

B1: Azoarcus group I ribozyme (parent)
chain: GUGCCUUGCGCCGGGAAACCACGCAAGGGAUGGUGUCAAAUUCGGCGAAACCUAAGCGCCCGCCCGGGCGUAUGGCAACGCCGAGCCAAGCUUCGGCGCCUGCGCCGAUGAAGGUGUAGAGACUAGACGGCACCCACCUAAGGCAAACGCUAUGGUGAAGGCAUAGUCCAGGGAGUGGCGAAAGUCACACAAACCGG

Variants of: B1
Assay: reverse-splicing fitness (ratio to wild type); higher = more active; in vitro selection; Mg2+ level not given
Procedure, shortened: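 An in vitro group I ribozyme library with randomized positions was T7-transcribed and gel-purified. In triplicate, 10 pmol RNA in EPPS pH 7.5 was reacted with 50 pmoles of a 30-nt RNA substrate for 1 h at 37 °C across several added MgCl2 levels (1–48 mM), then stopped with EDTA. Products were reverse transcribed from a substrate-complementary primer, PCR-amplified and sequenced (HiSeq 4000). Fitness is a variant's read proportion after selection over that before, normalised to wild type.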

In order of falling reverse-splicing fitness:
1. A111G A120C A145U  0.745
2. A111G A120C A145G  0.688
3. A111G A120C A145C  0.653
4. A111C A145U U176A  0.424
5. A111C A145U U176C  0.398
6. A111C C150U U176C  0.388
7. A111C U176C  0.38
8. A111C U176A  0.368
9. A111C C150U U176A  0.339
10. A111C A145U U176G  0.276
11. A111G A120C A145C C169U  0.223
12. A111C U176G  0.202
13. A111G A120C A145U C150U C169U  0.173
14. A111C A145U C150A U176C  0.166
15. A111C C150U U176G  0.138
16. A111C A145U C150G U176C  0.119
17. A111C A145U C169U  0.116
18. A111C A145U C150A U176A  0.114
19. A111G A120C A145G C150A U176C  0.0998
20. A111C A145U C150G U176A  0.0925
21. A111G A120C A145G C150A U176A  0.0804
22. A111G A120C C150A U176C  0.0799
23. A111C C150G U176C  0.0763
24. A111C A145U C150U C169U  0.0751
25. A111G A120C C150A U176A  0.0735
26. A111C A145U C169G  0.071
27. A111G A120C A145G C150U C169U U176C  0.0607
28. A111C A145U C150A U176G  0.0589
29. A111C C150G U176A  0.0504
30. A111G A120C A145G C150U C169U U176A  0.0456
31. A111C A145U C150U C169G  0.0433
32. A111G A120C C150A C169U  0.0403
33. A111G A120C A145C C150G C169U  0.0377
34. A111C A145U C169A  0.0348
35. A111C A145U C169U U176C  0.0282
36. A111C A145U C169G U176C  0.0264
37. A111C A145U C150U C169U U176A  0.0264
38. A111C A145U C169U U176A  0.0258
39. A111G A120C A145G C150A C169U U176A  0.0243
40. A111C A145U C150U C169U U176C  0.0241
41. A111G A120C A145G C150A C169G U176A  0.0231
42. A111G A120C A145G C150A C169U U176C  0.0231
43. A111G A120C C150A U176G  0.0222
44. A111G A120C A145G C150A C169G U176C  0.0221
45. A111C A145U C150U C169A  0.0212
46. A111G A120C A145U C150A C169U U176A  0.0204
47. A111G A120C A145G C150A U176G  0.0203
48. A111G A120C A145G C169A U176C  0.0197
49. A111C C150A C169U  0.019
50. A111C A145U C169G U176A  0.0179
51. A111G A120C A145U C150A C169U U176C  0.0177
52. A111G A120C A145G C169A U176A  0.0173
53. A111G A120C A145U C150G C169U U176C  0.0159
54. A111C C150G U176G  0.0131
55. A111G A120C A145U C150U C169A  0.013
56. A111G A120C A145C C169A  0.0128
57. A111C C150A C169G  0.0124
58. A111C C150A C169A  0.0113
59. A111G A120C A145U C150U C169G  0.0111
60. A111G A120C A145C C169G  0.0105
61. A111G A120C C150A C169A  0.00922
62. A111G A120C A145U C169G U176A  0.00894
63. A111G A120C A145U C169G U176C  0.00882
64. A111G A120C A145C C150G C169A  0.00873
65. A111G A120C C150A C169G  0.00862
66. A111C A145U C169U U176G  0.00798
67. A111C A145U C150U C169U U176G  0.00764
68. A111G A120C A145C C150G C169G U176A  0.00746
69. A111G A120C A145U C150G C169U U176A  0.0072
70. A111C A145U C169G U176G  0.00719
71. A111G A120C A145C C150G C169G  0.00666
72. A111G A120C A145G C150A C169G U176G  0.00551
73. A111G A120C A145G C150A C169U U176G  0.00549
74. A111G A120C A145G C150U C169U U176G  0.00537
75. A111G A120C A145C C150G C169A U176A  0.00532
76. A111G A120C A145C C150G C169A U176C  0.00524
77. A111G A120C A145U C150A C169U U176G  0.00505
78. A111G A120C A145C C150G C169G U176C  0.00487
79. A111G A120C A145C C150G C169A U176G  0.00452
80. A111G A120C A145U C169G U176G  0.0045
81. A111G A120C A145U C150G C169U U176G  0.00422
82. A111G A120C A145G C169A U176G  0.00366
83. A111G A120C A145C C150G C169G U176G  0.0036
